Results as given in publication PMC6240786.

Assays:
[1] = target: T181N cucumene synthase (Streptomyces clavuligerus); assay: crystal structure
[2] = target: Streptomyces clavuligerus cucumene synthase, wild-type (Streptomyces clavuligerus); assay: crystal structure

Substance	stoichiometry N [1]	stoichiometry N [2]
T181N cucumene synthase (enzyme)	2	–
Streptomyces clavuligerus cucumene synthase, wild-type (enzyme)	–	2
